The values below come from article doi:10.1101/780452.

For the test, the target named is BSA-Man (glycoprotein bearing 12 glycosylated sites) (bovine (from the name BSA)), P02769. The test can be described thus: SPR. The following applies: remark: other sources report otherwise.
BSA-Man (glycoprotein bearing 12 glycosylated sites) (bovine (from the name BSA)), P02769, sequence (P02769 25-607): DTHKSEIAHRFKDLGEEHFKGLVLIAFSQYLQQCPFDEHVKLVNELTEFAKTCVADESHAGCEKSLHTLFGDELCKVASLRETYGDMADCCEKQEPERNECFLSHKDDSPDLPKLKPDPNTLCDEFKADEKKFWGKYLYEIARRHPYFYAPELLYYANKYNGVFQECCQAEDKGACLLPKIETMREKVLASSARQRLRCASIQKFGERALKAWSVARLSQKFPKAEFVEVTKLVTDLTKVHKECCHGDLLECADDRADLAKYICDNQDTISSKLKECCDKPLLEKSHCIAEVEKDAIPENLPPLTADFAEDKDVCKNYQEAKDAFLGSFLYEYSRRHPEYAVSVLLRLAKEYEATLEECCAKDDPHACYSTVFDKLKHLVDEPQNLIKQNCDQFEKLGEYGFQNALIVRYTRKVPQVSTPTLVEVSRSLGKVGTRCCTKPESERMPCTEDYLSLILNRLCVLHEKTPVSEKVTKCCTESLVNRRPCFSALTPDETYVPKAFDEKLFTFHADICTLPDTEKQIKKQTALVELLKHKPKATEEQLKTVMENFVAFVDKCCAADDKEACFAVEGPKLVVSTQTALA

B1: DC-SIGN ECD (construct without StreptagII), Q9NNX6 59-404 (domain or fragment)
chain: QVSKVPSSISQEQSRQDAIYQNLTQLKAAVGELSEKSKLQEIYQELTQLKAAVGELPEKSKLQEIYQELTRLKAAVGELPEKSKLQEIYQELTWLKAAVGELPEKSKMQEIYQELTRLKAAVGELPEKSKQQEIYQELTRLKAAVGELPEKSKQQEIYQELTRLKAAVGELPEKSKQQEIYQELTQLKAAVERLCHPCPWEWTFFQGNCYFMSNSQRNWHDSITACKEVGAQLVVIKSAEEQNFLQLQSSRSNRFTWMGLSDLNQEGTWQWVDGSPLLPSFKQYWNRGEPNNVGEEDCAEFSGNGWNDDKCNLAKFWICKKSAASCSRDEEQFLSPAPATPNPPPA
modifications: here or on the partner: 12 glycosylated sites (mannose glycans, up to 12 glycans displayed)
For orientation: Kd means a measure of binding affinity in units of concentration. With B1, the Kd was 3.74 µM.
